# Results as given in paper PMC6015732.
# Experiments:
# Test in all cases: SPR
# [1] = biological target: RG801 (Fc domain of glycosylated clone 801 constructed with the Fab arms of Rituxan) (human)
# [2] = biological target: RG802 (Rituxan clone 802, glycosylated) (human)
# [3] = biological target: IgG1 (wild-type glycosylated IgG1) (human) [IgG part: P01857]
# [4] = biological target: RA801 (Fc domain of aglycosylated clone 801 constructed with the Fab arms of Rituxan) (human)
Substance,Kd [1],Kd [2],Kd [3],Kd [4]
"human FcγRI (monomeric, soluble) (from UniProt P12314 16-292) (receptor)",648 nM,–,–,–
monomeric human FcRn–β2-microglobulin (from UniProt P55899 24-365; P61769 21-119) (complex),283 nM,289 nM,623 nM,959 nM
